Values of other authors in PMC4472561 (The FEBS journal, 2015).

How the values were obtained:
[1] = system: CD8^+ cytotoxic effector memory T cells; conditions: in words; ref [25]
[2] = system: neural progenitor cells; conditions: in words; ref [24]
[3] = target: Kv1.1 (UniProt Q09470)
UniProt Q09470, sequence (Q09470 whole entry): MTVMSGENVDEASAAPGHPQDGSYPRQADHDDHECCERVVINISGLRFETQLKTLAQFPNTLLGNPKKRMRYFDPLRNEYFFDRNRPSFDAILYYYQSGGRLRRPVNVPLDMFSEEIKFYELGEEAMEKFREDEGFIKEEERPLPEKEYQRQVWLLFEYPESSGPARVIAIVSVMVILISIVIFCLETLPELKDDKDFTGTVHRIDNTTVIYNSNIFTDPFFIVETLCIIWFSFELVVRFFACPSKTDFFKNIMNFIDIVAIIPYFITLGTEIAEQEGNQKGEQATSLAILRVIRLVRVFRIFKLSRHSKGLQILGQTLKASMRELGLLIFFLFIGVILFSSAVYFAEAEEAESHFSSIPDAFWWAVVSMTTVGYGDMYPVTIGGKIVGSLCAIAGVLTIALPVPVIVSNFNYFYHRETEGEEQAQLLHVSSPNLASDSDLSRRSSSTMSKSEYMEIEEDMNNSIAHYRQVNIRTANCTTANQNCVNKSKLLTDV

Substance	proliferation of CD8+ cytotoxic effector memory T cells and secretion of granzyme B [1]	differentiation of neural progenitor cells into neurons [2]	Kd [3]
ChTx	blocked the proliferation of CD8^+ cytotoxic effector memory T cells and their secretion of granzyme B	–	–
MgTx (TIINVKCTSPKQCLPPCKAQFGQSAGAKCMNGKCKCYPH; UniProt P40755 1-39, looked up)	blocked the proliferation of CD8^+ cytotoxic effector memory T cells and their secretion of granzyme B	increased the differentiation of neural progenitor cells into neurons and enhanced neuron-regeneration	–
ShK (from UniProt P29187)	–	–	0.016 nM
